According to patent publication US20030044958A1 (ICOS, published 2003):

Experiments:
ICAM-1/Fc = ICAM-1/Fc (UniProt P05362); assay: cell-based or functional assay
VCAM-1/Fc = VCAM-1/Fc (UniProt P19320); assay: cell-based or functional assay
[1] = target: T1, His3E9-tagged β2 integrin cytoplasmic tail protein (UniProt P05107 724-769, not fully specified); assay: competition binding assay, competitor at 0.001 to 4 µM against iodinated IRP-1 on immobilized β2 C-tail
T1 construct: domain: cytoplasmic tail; Expressed in E. coli (pET15b) or Saccharomyces; immobilized on Scintistrip plates; also called β2 C-tail; β2 integrin C-tail; not shown: His3E9 tag
T1 chain (looked up): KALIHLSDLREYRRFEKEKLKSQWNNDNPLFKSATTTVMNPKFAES
Procedure: (§1) The integrin C-tails were immobilized onto 96-well microtiter Scintistrip™ (Wallac) plates at concentrations between […] in volumes of 50-100 μl bicarbonate, pH 9.6, per well and were incubated at 4° C. overnight. Plates were dried and blocked in 350 μl/well sterile-filtered 1-2% Bovine Serum Albumin (BSA) dissolved in binding assay buffer and were incubated at room temperature for 1-2 hours. The wells were washed 3 times in binding assay buffer and dried just prior to addition of IRPs.
The binding assay format was either a competition/inhibition binding assay or a saturation binding assay. In the competition binding assay, radiolabeled IRPs were diluted to 25-100 nM in binding assay buffer with one potential modulator of binding (unlabelled IRPs, soluble C-tails or non-specific control polypeptides such as BSA). The assay was initiated with addition of 100 μl labeled IRPs/potential modulator solution to the blocked Scintistrip® wells (50,000-200,000 cpm/well), then incubated one hour at room temperature (22-24° C.) and stopped by rapidly washing in binding assay buffer three to five times. The saturation binding assays were performed similarly, except that a constant 1:20 ratio of radiolabeled:unlabeled IRPs were tested over a total concentration range of 0.01-30 μM. The plates were dried and scintillation was measured on a Wallac Model 1450 liquid scintillation counter after the detectors were normalized. Interwell crosstalk was corrected for with a test Scintistrip™ plate, containing in the G11, 100 μl of 25-100 nM radiolabeled IRP captured by anti-IRP monoclonal antibody 200A coated in the well at 20 μg/ml in bicarbonate buffer. The incubation times and conditions for the test plate were identical to the binding assay above.

[2] = target: T2, Bovine Serum Albumin (BSA) (bovine, UniProt P02769 25-607); assay: radiolabelled IRP-1 on BSA-blocked Scintistrip wells
T2 construct: also called control peptide
T2 sequence (P02769 25-607 limits assumed): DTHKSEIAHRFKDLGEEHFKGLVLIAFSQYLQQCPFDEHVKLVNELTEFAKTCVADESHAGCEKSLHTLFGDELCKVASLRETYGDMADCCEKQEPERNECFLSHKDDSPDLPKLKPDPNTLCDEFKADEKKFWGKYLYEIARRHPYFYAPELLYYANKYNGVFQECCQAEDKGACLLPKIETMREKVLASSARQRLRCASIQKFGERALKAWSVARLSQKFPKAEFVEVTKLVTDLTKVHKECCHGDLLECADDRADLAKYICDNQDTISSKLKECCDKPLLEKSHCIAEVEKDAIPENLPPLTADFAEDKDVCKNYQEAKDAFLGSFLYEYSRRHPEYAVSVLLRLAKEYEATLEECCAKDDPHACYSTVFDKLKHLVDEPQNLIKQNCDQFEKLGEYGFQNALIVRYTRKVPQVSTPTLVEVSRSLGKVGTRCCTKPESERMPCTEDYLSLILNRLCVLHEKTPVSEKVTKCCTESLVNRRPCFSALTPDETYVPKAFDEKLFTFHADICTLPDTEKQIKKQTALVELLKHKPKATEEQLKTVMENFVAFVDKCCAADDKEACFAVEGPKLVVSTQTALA
Procedure: as §1
The binding assay format was either a competition/inhibition binding assay or a saturation binding assay. In the competition binding assay, radiolabeled IRPs were diluted to 25-100 nM in binding assay buffer with one potential modulator of binding (unlabelled IRPs, soluble C-tails or non-specific control polypeptides such as BSA). […] The plates were dried and scintillation was measured on a Wallac Model 1450 liquid scintillation counter after the detectors were normalized. […]
Binding was measured as counts of radiolabeled IRPs found in C-tail-coated wells above counts found in BSA-coated wells. Specific binding was assessed as counts found in C-tail-coated wells which were reduced with added unlabelled IRPs or soluble C-tails.

Chain of ICAM-1/Fc (P05362 28-480 limits assumed): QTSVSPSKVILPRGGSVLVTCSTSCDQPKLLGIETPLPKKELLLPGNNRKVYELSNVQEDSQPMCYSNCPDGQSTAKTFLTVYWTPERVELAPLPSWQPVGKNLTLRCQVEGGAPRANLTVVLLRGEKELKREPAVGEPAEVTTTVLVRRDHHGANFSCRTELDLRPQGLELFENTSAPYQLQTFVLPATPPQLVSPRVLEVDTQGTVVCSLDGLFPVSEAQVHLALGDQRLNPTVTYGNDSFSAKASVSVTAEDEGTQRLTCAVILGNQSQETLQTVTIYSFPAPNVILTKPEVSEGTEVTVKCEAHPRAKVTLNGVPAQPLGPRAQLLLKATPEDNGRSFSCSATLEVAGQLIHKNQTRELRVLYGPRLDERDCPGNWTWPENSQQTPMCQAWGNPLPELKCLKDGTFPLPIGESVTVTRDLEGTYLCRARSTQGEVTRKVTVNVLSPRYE
Chain of VCAM-1/Fc (P19320 25-698 limits assumed): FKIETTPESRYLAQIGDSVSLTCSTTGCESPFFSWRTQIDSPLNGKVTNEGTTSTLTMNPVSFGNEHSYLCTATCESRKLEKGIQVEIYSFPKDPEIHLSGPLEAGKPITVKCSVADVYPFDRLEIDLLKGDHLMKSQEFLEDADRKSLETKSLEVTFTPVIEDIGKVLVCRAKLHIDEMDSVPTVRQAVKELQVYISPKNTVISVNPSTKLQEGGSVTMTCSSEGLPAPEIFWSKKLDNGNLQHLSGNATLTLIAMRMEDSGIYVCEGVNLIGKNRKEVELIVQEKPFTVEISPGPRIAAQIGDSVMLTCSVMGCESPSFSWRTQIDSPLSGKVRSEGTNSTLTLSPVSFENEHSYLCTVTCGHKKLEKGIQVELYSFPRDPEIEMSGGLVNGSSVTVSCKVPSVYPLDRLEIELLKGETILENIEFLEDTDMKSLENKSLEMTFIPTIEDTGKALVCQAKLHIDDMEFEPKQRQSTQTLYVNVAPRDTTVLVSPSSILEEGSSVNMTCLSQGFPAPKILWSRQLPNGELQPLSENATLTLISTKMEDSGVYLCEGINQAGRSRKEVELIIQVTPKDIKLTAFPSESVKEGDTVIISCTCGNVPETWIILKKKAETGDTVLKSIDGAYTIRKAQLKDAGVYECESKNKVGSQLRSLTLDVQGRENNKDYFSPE

Q: “LFA-1 (CD11a/CD18) on JY, JY-8 or transfected COS cells (from UniProt P20701 26-1170; P05107 23-769) (receptor)” was tested. Which decrease in ICAM-1 adhesion of COS cells co-transfected with CD11a/CD18 and 3′HA B2-1, 5′HA B2-1, B2-1 PH or IRP-1 PH, 72 hours post-transfection, against vector control (ICAM-1/Fc) did it give?
A: 50%

Q: What about the decrease in static adhesion to ICAM-1 of JY-8 transfectants overexpressing IRP-1 against GFP control (basal and IL-8 stimulated) (ICAM-1/Fc) of the same molecule?
A: 40 to 50%

Q: What about the highest flow rate at which ICAM-1 binding of JYIRP-2 cells was detected after static binding (ICAM-1/Fc) of the same molecule?
A: < 7.5 dynes/cm^2

Q: And the static adhesion of JY-8 cells expressing only GFP (control) to immobilized ICAM-1, IL-8 against basal level (ICAM-1/Fc)?
A: 3 to 4 fold

Q: What about the static adhesion of JY-8 cells to ICAM-1, PMA against basal level (ICAM-1/Fc) of the same molecule?
A: > 4 fold

Q: And the static adhesion to ICAM-1 (basal or IL-8 induced) of JY-8 transfectants overexpressing IRP-2 against GFP transfectants (ICAM-1/Fc)?
A: 20%

Q: “integrin α4β7 on JY or JY-8 cells (from UniProt P13612 34-1032; P26010 20-798) (receptor)” was tested. Which IL-8 stimulated adhesion to VCAM-1 of JY-8 transfectants overexpressing B2-1 (VCAM-1/Fc) did it give?
A: 50%

Q: And the static adhesion of JY-8 cells expressing only GFP (control) to immobilized VCAM-1, IL-8 against basal level (VCAM-1/Fc)?
A: 2 fold

Q: What about the static adhesion of JY-8 cells to VCAM-1, PMA against basal level (VCAM-1/Fc) of the same molecule?
A: > 4 fold

Q: What about the static adhesion to VCAM-1 (IL-8 induced) of JY-8 transfectants overexpressing IRP-2 against GFP transfectants (VCAM-1/Fc) of the same molecule?
A: 20%

Q: And the static adhesion to VCAM-1 of JY-8 transfectants overexpressing IRP-1, IL-8 stimulated (VCAM-1/Fc)?
A: 40%

B1: His-tagged IRP-1 (HisIRP-1), expressed in E. coli (other)
chain: MEDGVYEPPDLTPEERMELENIRRRKQELLVEIQRLREELSEAMSEVEGLEANEGSKTLQRNRKMAMGRKKFNMDPKKGIQFLVENELLQNTPEEIARFLYKGEGLNKTAIGDYLGEREELNLAVLHAFVDLHEFTDLNLVQALRQFLWSFRLPGEAQKIDRMMEAFAQRYCLCNPGVFQSTDTCYVLSFAVIMLNTSLHNPNVRDKPGLERFVAMNRGINEGGDLPEELLRNLYDSIRNEPFKIPEDDGNDLTHTFFNPDREGWLLKLGGRVKTWKRRWFILTDNCLYYFEYTTDKEPRGIIPLENLSIREVDDPRKPNCFELYIPNNKGQLIKACKTEADGRVVEGNHMVYRISAPTQEEKDEWIKSIQAAVSVDPFYEMLAARKKRISVKKKQEQP
notes: also called unlabelled IRP-1; clone S3 protein; not shown: N-terminal histidine tag encoded by pET15b
Q: Which “percent decrease of iodinated IRP-1 binding” value (from here on “percent decrease”) [1] does the source give for B1 here?
A: ~75%

B2: iodinated IRP-1 (125I-labelled His-tagged IRP-1) (other)
chain: B1 chain
modifications: radiolabeled with 125I (Iodobead or lactoperoxidase/hydrogen peroxide method); positions not given
notes: also called radiolabeled IRP-1; not shown: His tag encoded by pET15b (non-kemptide-tagged)
Q: Does B2 bind [2]?
A: no binding

B3: His-tagged B2-1 (HisB2-1), expressed in E. coli (other, human, UniProt Q15438 1-398, looked up)
chain: MEEDDSYVPSDLTAEERQELENIRRRKQELLADIQRLKDEIAEVANEIENLGSTEERKNMQRNKQVAMGRKKFNMDPKKGIQFLIENDLLKNTCEDIAQFLYKGEGLNKTAIGDYLGERDEFNIQVLHAFVELHEFTDLNLVQALRQFLWSFRLPGEAQKIDRMMEAFAQRYCQCNNGVFQSTDTCYVLSFAIIMLNTSLHNPNVKDKPTVERFIAMNRGINDGGDLPEELLRNLYESIKNEPFKIPEDDGNDLTHTFFNPDREGWLLKLGGGRVKTWKRRWFILTDNCLYYFEYTTDKEPRGIIPLENLSIREVEDSKKPNCFELYIPDNKDQVIKACKTEADGRVVEGNHTVYRISAPTPEEKEEWIKCIKAAISRDPFYEMLAARKKKVSSTKRH
notes: mature; also called cytohesin-1; not shown: N-terminal histidine tag encoded by pET15b
Q: For B3, which “percent decrease” value [1] is on record?
A: ~75%

B4: IRP-1 Sec7 domain (recombinant, soluble competitor) (other)
chain: KFNMDPKKGIQFLVENELLQNTPEEIARFLYKGEGLNKTAIGDYLGEREELNLAVLHAFVDLHEFTDLNLVQALRQFLWSFRLPGEAQKIDRMMEAFAQRYCLCNPGVFQSTDTCYVLSFAVIMLNTSLHNPNVRDKPGLERFVAMNRGINEGGDLPEELLRNLYDSIRNEPFKI
Q: Which “percent decrease” value [1] does the source give for B4 here?
A: ~75%
